# Measured values reported in patent US9803013B2, “Biological materials and uses thereof” (BioInvent International AB, priority 2005, dated 2017).
# B1: B11: fully human IgG1 antibody specific for ICAM-1; VH and VL sequences of FIG. 10 (SEQ ID NOs. 6 and 8) (antibody, listed as Homo sapiens, V domains shown)
# VH: EVQLLESGGGLVQPGGSLRLSCAASGFTFSNAWMSWVRQAPGKGLEWVAFIWYDGSNKYYADSVKGRFTISRDNSKNTLYLQMNSLRAEDTAVYYCARYSGWYFDYWGQGTLVTVSS
# VL: QSVLTQPPSASGTPGQRVTISCTGSSSNIGAGYDVHWYQQLPGTAPKLLIYDNNNRPSGVPDRFSGSKSGTSASLAISGLRSEDEADYYCQSYDSSLSAWLFGGGTKLTVLG
# Key:
# [1] = test system: DU145 cells; assay: Apoptosis induction in carcinoma cells (cross-linked IgG, 16-24 hours, Annexin V/PI); format: cell-based, human
# Description: (§1) The prostate carcinoma cell line PC-3 was grown in Complete Growth Medium (RPMI 1640, supplemented with 10% FCS, 10 mM HEPES, and 2 mM L-Glutamine) to 80% confluency in a 6 well plate. The prostate carcinoma cell line DU145 was grown in MEM with Earl's salts, supplemented with 10% FCS, 1 mM sodium pyruvate, and 1 mM non-essential amino acids and the derivate of a melanoma cell line MDA MB 435 was grown in DMEM supplemented with 10% FCS.
# (§2) For apoptosis assays cells were washed in PBS and serially diluted B11 IgG1 (or B1 IgG1, Trastuzumab or negative antibody control for controls) was added to individual wells and binding was allowed during a 1-2 h incubation at 4° C. The cells were washed and Complete Growth Medium was added, containing cross-linking antibody, Fab′2 Goat anti-Human Fab′2, at 10 μg/ml. Cells were incubated in a humidified atmosphere, with 5% CO2 at 37° C., for 16-24 hours. Cells were collected by trypsination and stained with Alexa Fluor 488-Annexin V (AF488-AV) and propidium iodide (PI), according to manufacturer's instructions. The percentage apoptotic cells was determined by the formula: % apoptotic cells=100−% AF488−AV/PI−/−.
# (§3) Cells were seeded in 6 well plates with Complete Growth Medium three days before the onset of the experiment.
# [2] = test system: MDA MB 435 cells; assay: as above; format: cell-based, human; conditions: MDA MB 435, cross-linked IgG
# Description: as §1, §2, §3
# [3] = test system: primary patient MM cells; assay: SCID-hu mouse model of multiple myeloma; format: in vivo
# Description: Bone marrow cells (>20% plasma cells) from myeloma patients (two patients in experiment 1 [top panel] and two different patients in experiment 2 [lower panel]) were injected into transplanted human fetal bones of SCID-hu mice. Four weeks after myeloma cell inoculation mice were divided into four groups to yield similar mean hIgG levels between groups, each group comprising mice grafted with MM cells from the different patient donors used in the experiment, and twice weekly treatment with 2 mg/kg BI-505, 1 mg/kg bortezomib or 2 mg/kg control human IgG was started (arrow). […] Graphs show mean hIgG concentrations.
# Primary human MM cells depend on interactions with bone marrow stromal cells to proliferate and survive. The SCID-hu mouse harbors a human microenvironment where primary patient MM cells proliferate and induce pathology similar to human clinical MM (Yaccoby et al., 1998). MM cell derived human IgG titers were detected (>10 μg/ml) in the serum of SCID-hu mice four weeks after implantation of human MM cells to transplanted human bones, at which time treatment with antibodies (2 mg/kg) or bortezomib (1 mg/kg) began. Human IgG titers increased steadily in control treated SCID-hu mice over the course of experimentation to reach maximal concentrations of 40±5 μg/ml just before sacrifice (FIG. 18B and FIG. 19). […] Two independent experiments were performed with similar results (FIG. 18B and FIG. 19), each with MM cells from two different patient donors (n=4).
# Human fetal femurs and tibias, obtained at 17 to 22 gestational weeks, were cut into fragments and implanted subcutaneously in SCID mice (SCID-hu) at age 6 to 8 weeks. Each animal was implanted with one bone fragment. Four weeks after bone implantation, 2 to 14×10^6 bone marrow cells from each patient (two patients per experiment for a total of four patients in two independent experiments, n=4), containing>20% plasma cells were injected directly into the human bone of 6 to 8 SCID-hu mice in a final volume of 30 to 40 μl of phosphate-buffered saline (PBS). One group of mice was implanted with bone only and served as “healthy” bone control. Mouse sera were serially monitored for human immunoglobulin (hIg) and the isotype levels were used as an indicator of myeloma cell growth by elisa. When hIg level reached 10 μg/mL or higher in 2 consecutive measurements after 4 weeks of injection of the tumor cells, the mice were divided into four groups to yield similar mean hIgG levels between groups, each group comprising mice grafted with MM cells from the different patient donors used in each experiment. The four treatment groups were: healthy control group (no myeloma cells injected and no drug treatment), isotype control group (myeloma cells injected and treated with isotype control IgG, 2 mg/kg, i.p., twice weekly), BI505 group (myeloma cells injected and treated with BI505, 2 mg/kg, i.p., twice weekly) and bortezomib group (myeloma cells injected and treated with 1 mg/kg, i.p., twice weekly). In some graphs hIgG levels were normalized to pretreatment (4 weeks) levels and the percent increase or decrease in hIgG levels as a function of treatment and time was analyzed. Normalized data from animals receiving the same treatment (control IgG, BI-505 or bortezomib) but grafted with MM cells from each of the four different patient donors in the two experiments were pooled and statistical difference was assessed by grouped 2-way ANOVA test and Bonferroni's posttest using GraphPad Prism 5 software. Patient myeloma cells were taken after informed consent and with the approval of the local ethics committee. For x-radiography evaluation and quantification of bone mineral density (BMD) mice in the four groups were sacrificed and the implanted human bones were taken out and fixed in 10% formalin solution. Radiographs were taken with an AXR Minishot-100 beryllium source instrument (Associated X-Ray Imaging Corp., Haverhill, Mass., USA) and 100 s exposure at 30 kV. […]
# [4] = target: T1, human FcγRIIIa (Homo sapiens, UniProt P08637); assay: BiaCore analysis of BI-505 Fc-variant binding to FcγR
# T1 construct: made in house; host or cells: HEK293E cells (transient)
# Description: (FIG. 20C) BiaCore analysis of BI-505 Fc-variant antibodies binding to human FcγRIIIa.
# His-tagged human FcγRIIIa and mouse FcγRIV were transiently expressed in HEK293E cells, purified using Ni-NTA chromatography, and characterized by SDS-PAGE and/or Biacore. Surface plasmon resonance (SPR) measurements were performed using a Biacore 3000 instrument. Goat F(ab)′2 α-human-F(ab)′2 fragments (Jackson Laboratories) were immobilized with a CM-5 chip using a standard amine coupling protocol. BI-505 (IgG1) and IgG4 or IgG1 297Q variants of BI-505 were diluted to 15 and 60 μg/mL respectively and added to the surface at 10 μL/min for 3 min. His-tagged human FcγRIIIa or mouse FcγRIV was pre-incubated with an α-HIS antibody (R&D Systems) at a 2:1 molar ratio before addition to the chip surface, 30 μL/min, for 1 min. After each cycle the surface was regenerated twice with glycine buffer pH 1.7.
# [5] = test system: panel of ICAM-1-expressing tumor cell lines; assay: CDC; format: cell-based; conditions: human serum
# Description: Target cells were harvested as described above (under ADCC heading) and incubated with antibodies at 5 μg/mL for 60 min on ice and then washed. Human serum, normal or heat-inactivated (Sigma, Sweden), was added to tubes and the samples were incubated for 2 hr at 37° C. After completion of incubation, ToPo-Pro-3 (Invitrogen) was added at a final concentration of 0.3 μM and cells were analyzed for membrane permeabilization using flow cytometry.
# [6] = Limited safety studies in rat, rabbit and monkey; format: in vivo
# T1 sequence (P08637 17-254): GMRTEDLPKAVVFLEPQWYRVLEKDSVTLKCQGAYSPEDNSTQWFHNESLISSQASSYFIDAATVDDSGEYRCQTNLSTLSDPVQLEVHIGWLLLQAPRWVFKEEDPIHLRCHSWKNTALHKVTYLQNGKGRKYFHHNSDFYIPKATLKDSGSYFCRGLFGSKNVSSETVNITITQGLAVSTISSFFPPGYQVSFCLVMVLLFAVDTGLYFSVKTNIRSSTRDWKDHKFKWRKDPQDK
molecule,measurement,setting,value
B1,Apoptosis Induction,[1],induce apoptosis
same,Apoptosis Induction,[2],induce apoptosis
same,serum hIgG relative to pre-treatment levels,[3]; 2 mg/kg twice weekly from four weeks after MM cell implantation,91±22%
same,bone osteoclasts,"[3]; TRAP staining, compared to control-treated mice",reduced numbers of bone osteoclasts
same,bone mineral density,[3]; X-radiography of implanted human bones,decreased loss of bone mineral density
same,serum human IgG levels,[3]; antibody 2 mg/kg or bortezomib 1 mg/kg twice weekly,halted or reduced serum human IgG levels to below pre-treatment levels
same,tumor burden in human bone implants,[3]; human CD138 immunohistochemistry,decreased tumor burden
same,binding to human FcγR,[4],bound to human FcγR
same,CDC,[5],did not induce CDC
same,toxicity,[6],no compound-related off-target toxicity
